The nanobody polyreactivity screen of Harvey et al. (2022)

assay: yeast display, Sf9 membrane polyspecificity reagent, FACS + sequencing; frameworks hold sequencing errors
Procedure, shortened: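 Nanobodies from a synthetic yeast display library (Saccharomyces cerevisiae BJ5465), induced 36–48 hours with galactose, were stained 1 hour at 4 °C with 10% biotinylated, detergent-solubilized Sf9 membrane reagent, enriched on streptavidin microbeads, then FACS-sorted. Anti-HA (expression) and streptavidin (reagent binding) fluorescence set low and high (top ~1%) gates. Polyreactivity labels come from the gate of origin. Genes were colony-PCR amplified, MiSeq 2 × 250 sequenced and filtered by CDR length.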

Row | Sequence | polyreactivity (PSR sort gate)
1 | QVQLVESGGGLVQAGGSLRLSCAASGSTIYTYVMGWYRQAPGKERELVAAISWSGSSTYYADSVKGRFTISRDNAKNTVYLQMNSLKPEDTAVYYCNAQYRRGWWGVEYGYWGQGTQVTVSS | low polyreactivity
2 | QVQLVESGGGLVQAGGSLRLSCAASGSTIYYNAMGWYRQAPGKERELVAAISKSSSRTYYADSVKGRFTISRDNAKYSVYLQMNSLKPEDTAVYYCAADAVYYHFDYWGQGTQVTVSS | high polyreactivity
3 | QVQLVESGGGLVQAGGSLRLSCAASGSTIYYYALGWYRQAPGKERELVAAISWSGASTFYADSVKGRFTISRDNAKNTVDLKMNSLKPVDTAVYYCAAVIKGWGQGTQVTVSS | high polyreactivity
4 | QVQLVESGGGLVQAGGSLRLSCAASGSTLAGYAMGWYRQAPGKERELVAAIDWTGGSTTYADSVKGRFTISRDNAKNTVYLQMNSLKPEDTAVYYCNVDLGVNGDYWGQGTQVTVSS | low polyreactivity
5 | QVQLVESGGGLVQAGGSLRLSCAASGSTLAGYAMGWYRQAPGKERELVAAITRRGGRTYYADSVKGRFTISRDNAKNTVYLQMNSLKPEDTAVYYCAAQRSVKVDYWGQGTQVTVSS | high polyreactivity
6 | QVQLVESGGGLVQAGGSLRLSCAASGSTLAGYAMGWYRQAPGQERELVAAIDWTGGSTTYADSVKGRFTISRDNAKNTVYLQMNSLKPEDTAVYYCNVDLGVNCEYWGQGTQVTVSW | low polyreactivity
7 | QVQLVESGGGLVQAGGSLRLSCAASGSTLAKYTMGWYRQAPGKERELVATISRRGGSTYYADSVKGRFTISRDNAKNTVYLQMNSLKPEDTAVYYCNAVGHTSIRRALDILDYWGQGTQVTVSS | high polyreactivity
8 | QVQLVESGGGLVQAGGSLRLSCAASGSTLAPYVMGWYSQAPGKERELVAVISTRTGRTYYADSVKGRFTISRDNAKNTVSLQMNSLKPEDTAVYYCNAYPHAYTGSTREGDYWGQGTQVTVSS | high polyreactivity
9 | QVQLVESGGGLVQAGGSLRLSCAASGSTLASYAMGWYSQAPGKERELVAVIDSGGSTYYADSVKGRFTISRDNAKNSVYVQMNSLKPEDTAVYDCAAGWEFSGVLTLFGYWGQGTQVTVSS | low polyreactivity
10 | QVQLVESGGGLVQAGGSLRLSCAASGSTLATYTMGWYRLAPGTVRELVGAISFGGSTYYADSVKGRFTISRDNAKNTVYLQMNSLKPVDTAVYYCAVDGDSYWGAYYYSDGYWGQGTQVTVSS | low polyreactivity
11 | QVQLVESGGGLVQAGGSLRLSCAASGSTLDSNAMGWYRQAPGKERELVAGIDWSGGSTYADSVKGRFTISRDNAKNTVYLQMNSLKPEDTAVYYCNRKLTRFTSFPLDYWGQGTQVTVSS | low polyreactivity
12 | QVQLVESGGGLVQAGGSLRLSCAASGSTLEFNARGWSRQAPGKERELVAVINRSDGSTYYADSVKGRFTISRDNAKNTVYLQMNSLKPEDTAVYYCAADRHQVSVISTEDYWGQGTQVTVSS | low polyreactivity
13 | QVQLVESGGGLVQAGGSLRLSCAASGSTLFINAMGWYRQAPGKERELVAAITSGTSTNYADSVKGRFTISRDNAKNTVYLQMNSLKPEDTAVYYCAVDYWYVPYYWGQGTQVTVSS | low polyreactivity
14 | QVQLVESGGGLVQAGGSLRLSCAASGSTLFYYAMGCYRQAPGKERELVAAITQNGGGTYYADSVKGRFTISRDNAKNTVYLQMNSLKPEDTAVYYCAVTQEYIADHWYGYWGQGTQVTVSS | low polyreactivity
15 | QVQLVESGGGLVQAGGSLRLSCAASGSTLGGYAMGWYRQAPGKERELVAAIRWGGNTYYADSVKGRFTISRDNAKNTVYLQMNSLKPEDTAVYYCAADRWYYFLMYYWGQGTQVTVSS | low polyreactivity
16 | QVQLVESGGGLVQAGGSLRLSCAASGSTLGHNAMGWYRQAPGKERELVAGISWRGGSTYYADSVKGRFTISRDNAKNTVYLQMNSLKPEDTAVYYCAAVSYPAVYGFDYWGPGTQVTVSS | high polyreactivity

Row | Sequence | polyreactivity (PSR sort gate)
17 | QVQLVESGGGLVQAGGSLRLSCAASGSTLGRNAMGWYRQAPGKERELVAGIDGSAGSTYYADSVKGRFTISRDNAKNTVYLQMNSLKPEDTAVYYCNADVIDLDYDYWGQGTQVTVSS | low polyreactivity
18 | QVQLVESGGGLVQAGGSLRLSCAASGSTLGRYAMGWYRQAPGKERELVAAISSSGTTYYADSVKGRFTISRDNAKNTVYFQMNSLKPEDTAVYYCNARGFRVARHAAWYQYYYWGQGTQVTVSS | high polyreactivity
19 | QVQLVESGGGLVQAGGSLRLSCAASGSTLGRYAMGWYRQAPGKERELVASITWSDDSTYYADSVKGRFTISRDNAKNTVSLQMNSLKPEDTAVYYCAAAANLYTYRFYYWGQGTQVTVSS | low polyreactivity
20 | QVQLVESGGGLVQAGGSLRLSCAASGSTLGVNAMGWYRQAPGKEREFVAAITGRGGNTYYADSVKGRFTISRDNAKNTVYLQMNSLKPEDTAVYYCAARVKYTRYQSILDYYYWGQGTQVTVSS | high polyreactivity
21 | QVQLVESGGGLVQAGGSLRLSCAASGSTLGVYVMGWYRQAPGKERELVAAISRNGGSTYYADSVKARFTISRDNAKNTVYLQMNSLKPEDTAVYYCAARTVGRKACFDYWGQGTQVTVSS | high polyreactivity
22 | QVQLVESGGGLVQAGGSLRLSCAASGSTLGYYAMGWYRQAPGKERELVAAISGRGTSTYYADSVKGRFTISRDNAKTTVYLQMNSLKPEDSAVFYCAAQLFRELYWGQGTQVNVSS | high polyreactivity
23 | QVQLVESGGGLVQAGGSLRLSCAASGSTLGYYAMGWYRQAPGKERELVAAISWRTDSTYYADSVKGRFTISRDNAKNTVYLQMNSLKPEDTAVYYCAAQGAYDTYYAQTYGYWGQGTQVTVSS | low polyreactivity
24 | QVQLVESGGGLVQAGGSLRLSCAASGSTLGYYGMGWYRQAPGKERELVAAISGRGTSTYYADSVKGRCTISRDNAKNTVYLQMNSLKPEDTAVYYCAAQLFRELYWGQGTQVTVSS | high polyreactivity
25 | QVQLVESGGGLVQAGGSLRLSCAASGSTLGYYTMGWYIQAPGKERELVAAITRSGGSTYYADSVKGRFTISRDNAKNTVYLQMNSLKPEDTAVYYCAARSYQGTSSGRVTRRYDYWGQGTQVTVSS | high polyreactivity
26 | QVQLVESGGGLVQAGGSLRLSCAASGSTLGYYTMGWYRQAPGKERELVAAISYGGGSTYYADSVKGRFTISRDNAKNTVYLQMNSLKPEDTAVYYCAARWGKSWRGYGYWGQGTQVTVSS | high polyreactivity
27 | QVQLVESGGGLVQAGGSLRLSCAASGSTLLGNTMGWYRQAPGKERELVAAISWSGGSTYYADSVKGRFTISRDNAKNTVYLQMNSLKPEDTAVYYCNALGRENKGSYGYDYWGQGTQVTVSS | low polyreactivity
28 | QVQLVESGGGLVQAGGSLRLSCAASGSTLLYYAMGWSRQAPGKERELVAAITSGARTYYADSVKGRFTISRDNAKNTVYLQMNSLKPEDTAVYYCNAYRTSWWRAYDYWGQGTQVTVSS | high polyreactivity
29 | QVQLVESGGGLVQAGGSLRLSCAASGSTLNDYTMGWYRQAPGKERELVAAIRVSGARTFYADSVKGRFTISRDNAKNTVYLQMNSLKPEDTAVYYCAARWYIANPLSPSDYWGQGTQVTVSS | low polyreactivity
30 | QVQLVESGGGLVQAGGSLRLSCAASGSTLNIYAMGWYRQAPGKERELVAAISWTDDTTYYADSVKGRFTISRDNAKNTVYLQMNSLKPEDTAVYYCAAEIYSWSDAQQYDYWGQGTQVTVSS | high polyreactivity
31 | QVQLVESGGGLVQAGGSLRLSCAASGSTLNLYAMGWYRQAPGKEREVVAGITGGGSSTYYADSVKGRFTISRDNAKNTVYLQMNSLKPEDTAVYYCNVEPGYYYYRHWVAYSHGYGYWGQGTQVTVSS | low polyreactivity
32 | QVQLVESGGGLVQAGGSLRLSCAASGSTLNSYAMGLYRQAPGKDRELVAAISWSGGSTYYADSVKGRFSISRDNAKNTVYLQMNSVKAEDTAVYYCNAAFWWDYAYGVDYWGQGTQVTVSS | low polyreactivity
